Data: IntAct's records for PubMed 29892012

B1: Protein VAC14 homolog (Homo sapiens), Q08AM6 (parent)
chain: MNPEKDFAPLTPNIVRALNDKLYEKRKVAALEIEKLVREFVAQNNTVQIKHVIQTLSQEFALSQHPHSRKGGLIGLAACSIALGKDSGLYLKELIEPVLTCFNDADSRLRYYACEALYNIVKVARGAVLPHFNVLFDGLSKLAADPDPNVKSGSELLDRLLKDIVTESNKFDLVSFIPLLRERIYSNNQYARQFIISWILVLESVPDINLLDYLPEILDGLFQILGDNGKEIRKMCEVVLGEFLKEIKKNPSSVKFAEMANILVIHCQTTDDLIQLTAMCWMREFIQLAGRVMLPYSSGILTAVLPCLAYDDRKKSIKEVANVCNQSLMKLVTPEDDELDELRPGQRQAEPTPDDALPKQEGTASGGPDGSCDSSFSSGISVFTAASTERAPVTLHLDGIVQVLNCHLSDTAIGMMTRIAVLKWLYHLYIKTPRKMFRHTDSLFPILLQTLSDESDEVILKDLEVLAEIASSPAGQTDDPGPLDGPDLQASHSELQVPTPGRAGLLNTSGTKGLECSPSTPTMNSYFYKFMINLLKRFSSERKLLEVRGPFIIRQLCLLLNAENIFHSMADILLREEDLKFASTMVHALNTILLTSTELFQLRNQLKDLKTLESQNLFCCLYRSWCHNPVTTVSLCFLTQNYRHAYDLIQKFGDLEVTVDFLAEVDKLVQLIECPIFTYLRLQLLDVKNNPYLIKALYGLLMLLPQSSAFQLLSHRLQCVPNPELLQTEDSLKAAPKSQKADSPSIDYAELLQHFEKVQNKHLEVRHQRSGRGDHLDRRVVL
partner: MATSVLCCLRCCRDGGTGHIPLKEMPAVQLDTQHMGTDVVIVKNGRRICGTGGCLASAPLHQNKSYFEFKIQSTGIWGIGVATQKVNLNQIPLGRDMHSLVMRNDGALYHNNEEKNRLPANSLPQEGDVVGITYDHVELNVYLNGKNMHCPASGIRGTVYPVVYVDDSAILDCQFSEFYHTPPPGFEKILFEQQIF
B2: Exportin-6 (Homo sapiens), Q96QU8 (parent)
chain: MASEEASLRALESLMTEFFHDCTTNERKREIEELLNNFAQQIGAWRFCLYFLSSTRNDYVMMYSLTVFENLINKMWLGVPSQDKMEIRSCLPKLLLAHHKTLPYFIRNKLCKVIVDIGRQDWPMFYHDFFTNILQLIQSPVTTPLGLIMLKTTSEELACPREDLSVARKEELRKLLLDQVQTVLGLLTGILETVWDKHSVTAATPPPSPTSGESGDLLSNLLQSPSSAKLLNQPIPILDVESEYICSLALECLAHLFSWIPLSASITPSLLTTIFHFARFGCDIRARKMASVNGSSQNCVSGQERGRLGVLAMSCINELMSKNCVPMEFEEYLLRMFQQTFYLLQKITKDNNAHTVKSRLEELDESYIEKFTDFLRLFVSVHLRRIESYSQFPVVEFLTLLFKYTFHQPTHEGYFSCLDIWTLFLDYLTSKIKSRLGDKEAVLNRYEDALVLLLTEVLNRIQFRYNQAQLEELDDETLDDDQQTEWQRYLRQSLEVVAKVMELLPTHAFSTLFPVLQDNLEVYLGLQQFIVTSGSGHRLNITAENDCRRLHCSLRDLSSLLQAVGRLAEYFIGDVFAARFNDALTVVERLVKVTLYGSQIKLYNIETAVPSVLKPDLIDVHAQSLAALQAYSHWLAQYCSEVHRQNTQQFVTLISTTMDAITPLISTKVQDKLLLSACHLLVSLATTVRPVFLISIPAVQKVFNRITDASALRLVDKAQVLVCRALSNILLLPWPNLPENEQQWPVRSINHASLISALSRDYRNLKPSAVAPQRKMPLDDTKLIIHQTLSVLEDIVENISGESTKSRQICYQSLQESVQVSLALFPAFIHQSDVTDEMLSFFLTLFRGLRVQMGVPFTEQIIQTFLNMFTREQLAESILHEGSTGCRVVEKFLKILQVVVQEPGQVFKPFLPSIIALCMEQVYPIIAERPSPDVKAELFELLFRTLHHNWRYFFKSTVLASVQRGIAEEQMENEPQFSAIMQAFGQSFLQPDIHLFKQNLFYLETLNTKQKLYHKKIFRTAMLFQFVNVLLQVLVHKSHDLLQEEIGIAIYNMASVDFDGFFAAFLPEFLTSCDGVDANQKSVLGRNFKMDRDLPSFTQNVHRLVNDLRYYRLCNDSLPPGTVKL
B3: Keratin, type I cuticular Ha8 (Homo sapiens), O76015 (parent)
chain: MTSSYSSSSCPLGCTMAPGARNVSVSPIDIGCQPGAEANIAPMCLLANVAHANRVRVGSTPLGRPSLCLPPTCHTACPLPGTCHIPGNIGICGAYGENTLNGHEKETMQFLNDRLANYLEKVRQLEQENAELEATLLERSKCHESTVCPDYQSYFHTIEELQQKILCSKAENARLIVQIDNAKLAADDFRIKLESERSLRQLVEADKCGTQKLLDDATLAKADLEAQQESLKEEQLSLKSNHEQEVKILRSQLGEKLRIELDIEPTIDLNRVLGEMRAQYEAMLETNRQDVEQWFQAQSEGISLQDMSCSEELQCCQSEILELRCTVNALEVERQAQHTLKDCLQNSLCEAEDRFGTELAQMQSLISNVEEQLSEIRADLERQNQEYQVLLDVKTRLENEIATYRNLLESEDCKLPCNPCSTSPSCVTAPCAPRPSCGPCTTCGPTCGASTTGSRF

Variants of: B1
Conditions: with spry7_human SPRYD7, Q5W111

Variant | effect of a mutation on the interaction
A127S | with no effect

Variants of: B2
Conditions: with nup62_human NUP62, P37198
nup62_human NUP62, P37198, sequence (P37198 whole entry): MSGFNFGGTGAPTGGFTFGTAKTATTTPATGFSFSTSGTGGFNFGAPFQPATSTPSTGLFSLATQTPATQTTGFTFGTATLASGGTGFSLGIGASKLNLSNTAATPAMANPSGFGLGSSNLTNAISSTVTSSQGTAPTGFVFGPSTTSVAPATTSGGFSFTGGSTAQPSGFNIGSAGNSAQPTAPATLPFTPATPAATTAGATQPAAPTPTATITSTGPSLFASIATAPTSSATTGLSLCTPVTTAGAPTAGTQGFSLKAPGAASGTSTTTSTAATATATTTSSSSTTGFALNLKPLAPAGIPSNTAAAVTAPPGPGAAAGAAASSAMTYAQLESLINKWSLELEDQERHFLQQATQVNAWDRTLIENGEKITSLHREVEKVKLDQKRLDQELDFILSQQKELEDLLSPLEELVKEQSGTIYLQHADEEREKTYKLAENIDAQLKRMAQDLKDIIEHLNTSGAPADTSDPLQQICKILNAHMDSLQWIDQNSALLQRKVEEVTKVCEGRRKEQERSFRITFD

Variant | effect of a mutation on the interaction
L512V | with no effect

Variants of: B3
Conditions: with k22e_human KRT2, P35908
k22e_human KRT2, P35908, sequence (P35908 whole entry): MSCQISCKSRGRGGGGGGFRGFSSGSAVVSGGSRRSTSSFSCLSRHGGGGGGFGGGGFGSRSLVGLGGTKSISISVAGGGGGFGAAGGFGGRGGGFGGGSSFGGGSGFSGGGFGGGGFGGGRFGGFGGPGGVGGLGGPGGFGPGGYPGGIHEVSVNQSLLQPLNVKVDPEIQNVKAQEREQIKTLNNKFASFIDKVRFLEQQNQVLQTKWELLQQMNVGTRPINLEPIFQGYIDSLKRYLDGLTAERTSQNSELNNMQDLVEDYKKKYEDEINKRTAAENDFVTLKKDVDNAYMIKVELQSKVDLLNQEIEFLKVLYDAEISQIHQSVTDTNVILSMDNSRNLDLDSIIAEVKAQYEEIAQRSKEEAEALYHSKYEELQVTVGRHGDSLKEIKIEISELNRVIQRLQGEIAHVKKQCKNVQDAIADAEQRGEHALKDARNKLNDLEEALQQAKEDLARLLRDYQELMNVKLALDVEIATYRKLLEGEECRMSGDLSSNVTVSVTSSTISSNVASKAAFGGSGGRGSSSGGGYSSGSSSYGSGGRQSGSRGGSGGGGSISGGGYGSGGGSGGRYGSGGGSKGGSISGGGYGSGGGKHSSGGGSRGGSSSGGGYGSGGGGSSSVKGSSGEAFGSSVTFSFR

Variant | effect of a mutation on the interaction
N270K | with no effect

Variants of: B3
Conditions: with txnd5_human TXNDC5, Q8NBS9
txnd5_human TXNDC5, Q8NBS9, sequence (Q8NBS9 whole entry): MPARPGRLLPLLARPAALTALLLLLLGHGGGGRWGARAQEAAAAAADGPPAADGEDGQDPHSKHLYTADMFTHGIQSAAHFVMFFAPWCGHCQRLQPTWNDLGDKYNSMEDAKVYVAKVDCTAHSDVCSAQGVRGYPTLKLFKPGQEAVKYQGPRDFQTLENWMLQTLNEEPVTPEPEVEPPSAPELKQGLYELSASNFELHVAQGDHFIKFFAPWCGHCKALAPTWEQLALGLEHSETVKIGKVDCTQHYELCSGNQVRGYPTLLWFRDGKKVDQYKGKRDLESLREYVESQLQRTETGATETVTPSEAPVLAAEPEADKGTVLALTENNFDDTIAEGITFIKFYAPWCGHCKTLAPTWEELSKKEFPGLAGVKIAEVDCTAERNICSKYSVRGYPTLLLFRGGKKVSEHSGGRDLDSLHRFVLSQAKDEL

Variant | effect of a mutation on the interaction
N270K | with no effect

Variants of: B3
Conditions: with prs8_human PSMC5, P62195
prs8_human PSMC5, P62195, sequence (P62195 whole entry): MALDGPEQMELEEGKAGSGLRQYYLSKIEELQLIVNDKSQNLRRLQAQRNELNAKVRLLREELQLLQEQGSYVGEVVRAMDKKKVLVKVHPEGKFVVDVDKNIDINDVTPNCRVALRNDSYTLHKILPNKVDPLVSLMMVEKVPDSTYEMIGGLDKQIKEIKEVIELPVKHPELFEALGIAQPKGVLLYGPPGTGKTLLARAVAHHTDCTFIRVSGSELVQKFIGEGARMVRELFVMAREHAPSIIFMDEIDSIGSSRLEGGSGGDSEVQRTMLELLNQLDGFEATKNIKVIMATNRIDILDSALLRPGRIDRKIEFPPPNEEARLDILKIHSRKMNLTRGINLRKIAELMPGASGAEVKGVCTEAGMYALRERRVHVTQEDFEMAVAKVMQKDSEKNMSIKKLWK

Variant | effect of a mutation on the interaction
N270K | with no effect

Variants of: B3
Conditions: with p85b_human PIK3R2, O00459
p85b_human PIK3R2, O00459, sequence (O00459 whole entry): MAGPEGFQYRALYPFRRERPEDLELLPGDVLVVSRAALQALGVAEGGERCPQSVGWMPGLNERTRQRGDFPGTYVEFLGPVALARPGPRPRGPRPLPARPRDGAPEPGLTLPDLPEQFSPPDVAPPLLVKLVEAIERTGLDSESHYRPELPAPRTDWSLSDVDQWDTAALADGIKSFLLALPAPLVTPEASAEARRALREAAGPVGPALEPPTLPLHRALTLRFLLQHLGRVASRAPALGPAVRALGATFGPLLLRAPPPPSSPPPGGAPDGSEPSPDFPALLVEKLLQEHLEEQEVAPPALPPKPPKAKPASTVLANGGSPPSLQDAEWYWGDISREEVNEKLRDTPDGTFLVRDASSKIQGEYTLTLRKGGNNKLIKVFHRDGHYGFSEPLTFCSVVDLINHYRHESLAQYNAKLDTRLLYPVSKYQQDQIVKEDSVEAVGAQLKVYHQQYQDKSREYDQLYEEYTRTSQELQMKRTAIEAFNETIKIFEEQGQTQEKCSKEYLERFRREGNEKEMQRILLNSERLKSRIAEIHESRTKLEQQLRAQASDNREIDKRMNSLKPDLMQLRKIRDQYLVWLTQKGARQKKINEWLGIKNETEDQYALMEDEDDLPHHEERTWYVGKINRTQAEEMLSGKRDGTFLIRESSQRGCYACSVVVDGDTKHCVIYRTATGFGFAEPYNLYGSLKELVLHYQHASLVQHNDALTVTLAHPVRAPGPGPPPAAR

Variant | effect of a mutation on the interaction
N270K | with no effect

Variants of: B3
Conditions: with KRT6A

Variant | effect of a mutation on the interaction
N270K | with no effect

Variants of: B3
Conditions: with k2c4_human KRT4, P19013
k2c4_human KRT4, P19013, sequence (P19013 whole entry): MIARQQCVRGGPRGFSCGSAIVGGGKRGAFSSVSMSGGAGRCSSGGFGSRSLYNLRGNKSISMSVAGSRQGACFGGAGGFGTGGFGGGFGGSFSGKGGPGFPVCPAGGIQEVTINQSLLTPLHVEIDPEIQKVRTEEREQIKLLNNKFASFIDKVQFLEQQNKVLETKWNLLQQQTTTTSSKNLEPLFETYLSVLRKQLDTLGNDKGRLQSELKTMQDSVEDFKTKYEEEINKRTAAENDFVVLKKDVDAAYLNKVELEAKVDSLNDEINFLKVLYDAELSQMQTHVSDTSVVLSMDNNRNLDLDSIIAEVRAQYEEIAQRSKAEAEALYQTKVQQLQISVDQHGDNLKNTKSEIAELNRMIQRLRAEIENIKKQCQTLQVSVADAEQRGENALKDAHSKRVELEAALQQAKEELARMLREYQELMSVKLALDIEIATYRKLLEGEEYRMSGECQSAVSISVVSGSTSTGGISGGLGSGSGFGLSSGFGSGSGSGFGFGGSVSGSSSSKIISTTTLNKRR

Variant | effect of a mutation on the interaction
N270K | with no effect

Variants of: B3
Conditions: with txlnb_human TXLNB

Variant | effect of a mutation on the interaction
N270K | with no effect

Variants of: B3
Conditions: with KRT79, Q5XKE5
KRT79, Q5XKE5, sequence (Q5XKE5 whole entry): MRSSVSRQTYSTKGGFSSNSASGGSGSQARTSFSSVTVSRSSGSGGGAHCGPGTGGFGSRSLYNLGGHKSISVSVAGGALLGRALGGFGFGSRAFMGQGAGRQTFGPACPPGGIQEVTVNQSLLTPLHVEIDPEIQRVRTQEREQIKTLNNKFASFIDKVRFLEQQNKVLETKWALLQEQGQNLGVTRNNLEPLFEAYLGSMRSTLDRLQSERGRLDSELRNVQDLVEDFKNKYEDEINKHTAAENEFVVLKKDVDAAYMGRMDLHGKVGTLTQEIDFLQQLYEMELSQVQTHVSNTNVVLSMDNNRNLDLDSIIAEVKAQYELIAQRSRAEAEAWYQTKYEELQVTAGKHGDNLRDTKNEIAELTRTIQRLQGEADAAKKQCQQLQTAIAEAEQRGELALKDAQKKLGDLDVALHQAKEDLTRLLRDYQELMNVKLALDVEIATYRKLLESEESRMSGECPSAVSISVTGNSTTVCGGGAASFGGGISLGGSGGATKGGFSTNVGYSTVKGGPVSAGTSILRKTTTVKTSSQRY

Variant | effect of a mutation on the interaction
N270K | with no effect

Variants of: B3
Conditions: with txlna_human TXLNA

Variant | effect of a mutation on the interaction
N270K | with no effect
